# Source: the Human Domainome abundance scans (Beltran et al. 2025)
# ± gives the uncertainty stated by the source.
# B1: Tripartite motif-containing protein 44, residues 174 to 218; numbered along this chain, Q96DX7 (parent)
# chain: VAKRKCPDHGLDLSTYCQEDRQLICVLCPVIGAHQGHQLSTLDEA
# B2: RanBP-type and C3HC4-type zinc finger-containing protein 1, residues 369 to 411; numbered along this chain, Q9BYM8 (parent)
# chain: YHCKTPDCKGWCFFEDDVNEFTCPVCFHVNCLLCKAIHEQMNC
# Variants of: B1
# Assay: abundance fitness (aPCA) (normalised: wild type 0, dead -1); higher = more abundant; growth selection in yeast, the domain comes from the species named
# Settings: Homo sapiens
row,Variant,abundance fitness
1,D8S,-0.03 ± 0.031
2,D8L,0.048 ± 0.031
3,D8P,-0.827 ± 0.063
4,D8I,0.029 ± 0.042
5,D8M,0.057 ± 0.034
6,D8A,0.016 ± 0.029
7,D8E,0.044 ± 0.029
8,D8Y,0.049 ± 0.051
9,D8C,-0.103 ± 0.035
10,D8Q,0.028 ± 0.044
11,D8F,-0.034 ± 0.041
12,D8H,0.038 ± 0.058
13,D8N,-0.045 ± 0.058
14,D8T,0.051 ± 0.032
15,D8W,-0.105 ± 0.032
16,D8K,0.047 ± 0.047
17,K3T,-0.013 ± 0.033
18,K3V,-0.076 ± 0.028
19,K3F,-0.124 ± 0.054
20,K3H,-0.08 ± 0.057
21,K3I,0.032 ± 0.04
22,K3Y,-0.137 ± 0.052
23,K3C,-0.379 ± 0.033
24,K3A,-0.134 ± 0.027

row,Variant,abundance fitness
1,K3W,-0.196 ± 0.029
2,K3Q,-0.038 ± 0.033
3,K3L,-0.09 ± 0.027
4,K3D,0.024 ± 0.032
5,K3R,-0.073 ± 0.026
6,K3S,-0.056 ± 0.031
7,K3G,-0.052 ± 0.026
8,K3P,-0.093 ± 0.031
9,K3E,0.02 ± 0.028
10,K3N,-0.042 ± 0.074
11,R4K,0.007 ± 0.034
12,R4I,-0.046 ± 0.042
13,R4C,-0.248 ± 0.056
14,R4N,0.071 ± 0.064
15,R4V,-0.086 ± 0.029
16,R4H,-0.198 ± 0.051
17,R4E,-0.046 ± 0.028
18,R4P,-0.314 ± 0.037
19,R4L,-0.061 ± 0.03
20,R4T,-0.07 ± 0.032
21,R4W,-0.162 ± 0.028
22,R4S,-0.054 ± 0.032
23,R4A,-0.062 ± 0.029
24,R4D,0.016 ± 0.033

row,Variant,abundance fitness
1,R4G,-0.057 ± 0.025
2,R4F,-0.041 ± 0.047
3,R4M,0.023 ± 0.033
4,A2P,-0.088 ± 0.04
5,A2F,0.009 ± 0.065
6,A2R,-0.12 ± 0.029
7,A2G,-0.04 ± 0.027
8,A2E,0.087 ± 0.031
9,A2D,0.053 ± 0.03
10,A2V,-0.037 ± 0.028
11,A2L,-0.031 ± 0.032
12,A2T,0.12 ± 0.039
13,A2M,-0.009 ± 0.041
14,A2H,0.03 ± 0.044
15,A2I,0.041 ± 0.039
16,A2C,0.04 ± 0.041
17,A2S,0.045 ± 0.033
18,A2N,0.096 ± 0.062
19,A2Y,-0.027 ± 0.059
20,H9C,-0.103 ± 0.032
21,H9A,-1 ± 0.052
22,H9E,-0.863 ± 0.046
23,H9F,-1.24 ± 0.16
24,H9D,-0.981 ± 0.091

row,Variant,abundance fitness
1,K5H,-0.24 ± 0.063
2,K5F,-0.129 ± 0.052
3,K5C,-0.141 ± 0.036
4,K5N,-0.111 ± 0.07
5,K5L,-0.15 ± 0.028
6,K5D,-0.409 ± 0.04
7,K5G,-0.218 ± 0.025
8,K5S,-0.125 ± 0.031
9,K5W,-0.308 ± 0.03
10,K5A,-0.235 ± 0.027
11,K5E,-0.173 ± 0.03
12,K5I,-0.198 ± 0.16
13,K5R,-0.159 ± 0.027
14,K5Y,-0.221 ± 0.06
15,K5V,-0.135 ± 0.028
16,K5T,-0.115 ± 0.031
17,K5Q,-0.163 ± 0.032
18,C6V,-1.07 ± 0.067
19,C6K,-0.874 ± 0.073
20,C6W,-1.06 ± 0.069
21,C6T,-0.783 ± 0.072
22,C6R,-0.999 ± 0.04
23,C6H,-1.1 ± 0.11
24,C6P,-1.07 ± 0.17

row,Variant,abundance fitness
1,C6Y,-0.92 ± 0.095
2,C6Q,-0.889 ± 0.068
3,C6A,-1.05 ± 0.064
4,C6D,-0.701 ± 0.076
5,C6M,-1.04 ± 0.12
6,C6N,-0.889 ± 0.11
7,C6E,-0.946 ± 0.087
8,P7R,-0.168 ± 0.029
9,P7C,-0.141 ± 0.049
10,P7D,-0.481 ± 0.059
11,P7Q,0.038 ± 0.039
12,P7A,-0.013 ± 0.029
13,P7N,-0.565 ± 0.067
14,P7L,-0.124 ± 0.032
15,P7E,-0.446 ± 0.033
16,P7S,-0.089 ± 0.039
17,P7Y,-0.226 ± 0.048
18,P7T,0.065 ± 0.045
19,P7I,-0.092 ± 0.055
20,P7G,-0.169 ± 0.027
21,P7F,-0.321 ± 0.16
22,P7V,-0.25 ± 0.029
23,P7K,-0.342 ± 0.04
24,P7M,-0.036 ± 0.037

row,Variant,abundance fitness
1,P7W,-0.191 ± 0.035
2,V1M,-0.032 ± 0.056
3,V1A,-0.13 ± 0.034
4,V1N,-0.097 ± 0.047
5,V1Y,-0.226 ± 0.055
6,V1E,-0.049 ± 0.038
7,V1F,-0.197 ± 0.06
8,V1W,-0.231 ± 0.051
9,V1D,-0.112 ± 0.041
10,V1S,-0.027 ± 0.061
11,V1G,-0.107 ± 0.029
12,V1H,-0.275 ± 0.085
13,V1Q,-0.159 ± 0.16
14,V1C,-0.029 ± 0.06
15,V1K,-0.005 ± 0.041
16,V1P,-0.11 ± 0.22
17,V1I,0.036 ± 0.035
18,V1R,-0.39 ± 0.057
19,V1L,-0.196 ± 0.038

# Variants of: B2
# Assay: as above
# Settings: Homo sapiens
row,Variant,abundance fitness
1,Q40A,-0.094 ± 0.043
2,Y1F,-0.282 ± 0.2
3,M41T,0.155 ± 0.048
4,M41V,-0.008 ± 0.043
5,T22S,-0.267 ± 0.056
6,H2M,-0.031 ± 0.059
7,H2V,-0.739 ± 0.071
8,A36P,-0.333 ± 0.064
9,A36W,-0.87 ± 0.075
10,P6W,-0.629 ± 0.11
11,E15K,-0.169 ± 0.15
12,L32S,-0.295 ± 0.055
13,P24R,-0.39 ± 0.047
14,V25T,-0.36 ± 0.064
15,K4I,-0.206 ± 0.14
16,N19F,-0.395 ± 0.44
17,F21A,0.083 ± 0.043
18,E20L,-0.163 ± 0.054
19,C8D,-0.812 ± 0.15
20,N42G,0.161 ± 0.041
21,F27P,-0.62 ± 0.068
22,E39R,-0.111 ± 0.045
23,E39N,-0.081 ± 0.17
24,C23T,-0.761 ± 0.076
25,L33F,-0.313 ± 0.14
26,T5N,-0.236 ± 0.098
27,G10P,-0.723 ± 0.14
28,I37K,-0.208 ± 0.083
